Entries after “also recorded” stand apart in the source; their conditions may differ.
What was measured:
[1] = test system: CCR10+ EphA3+ cells; experiment: Humanized NSG mouse model of IPF: KB004 / KB243 mAb treatment (hydroxyproline, Masson's trichrome, flow cytometry); assay type: in vivo, human IPF cells in NSG mice
Source text: Six to eight-week old, female, pathogen free NOD Cg-Prkdc^SCID IL2rg^Tm1wil Szi (NSG) or NOD.Cg-Prkdc^SCID IL2rg^tm1Wil Tg(CAG-EGFP) 10sb/SzJ (NSG-GFP) were purchased from Jackson Laboratories and housed in Cedars-Sinai Medical Center's high isolation animal rooms. NSG mice were allowed a minimum of one week to acclimate in the facility and then these mice either received nothing (i.e., non-humanized) 1×10^6 IPF cells by intravenous injection (i.e. humanized). In most in vivo experiments, the IPF cells used were removed from liquid N2 storage, rapidly thawed, and washed in serum-free medium prior to injection into NSG mice. […] […] Other groups of humanized NSG mice received either vehicle (i.e., solutol) or BIBF1120 (Cayman Chemicals) by oral gavage beginning at day 35 after IPF cell injection. Vehicle or drug was administered 5 days a week until day 63 after IPF cell injection. All NSG groups were monitored daily and mice were sacrificed if there is evidence for morbidity such as weight loss of more than 20%, loss of fur, paralysis and/or lack of responsiveness when handled.
Murine lung cellular suspensions were generated using a mouse lung dissociation kit, C-tubes, and a GentleMacs dissociator (Miltenyi Biotech). Spleens were dissociated using a sterile rubber tip of 1 ml syringe plunger and 100 μm 50 ml tube filters (BD bioscience) as follows: isolated spleens were placed in 1 ml of sterile complete medium until all the samples were collected. Sterile 50 ml conical tube filters were placed on top of sterile 50 ml conical tubes and were equilibrated by pipetting 1 ml of calcium and magnesium free DPBS (DBPS; Cellgro) through the filters. Spleens were transferred to a sterile 50 ml filter, cellular suspensions were generated using a sterile rubber tip of a syringe plunger, and splenic material was flushed with 5 ml of DPBS. Lung and splenic cell suspensions were centrifuged and resuspended in 1 ml of RBC lysis buffer (Biolegend), incubated at room temperature for 1-2 min and then equilibrated by adding 25 ml of DPBS to each tube. Cells were centrifuged and resuspended in flow cytometric wash/staining buffer (DPBS+2% FBS) in the presence of human and mouse Fc receptor blocking antibodies (Biolegend). Cells were then stained with anti-human-CD45, -EpCAM and -CCR10 antibodies for 20 min at 4° C. Unstained, isotype controls, fluorescent minus one controls and staining in non-humanized murine lung and spleen suspensions were utilized to gate out any non-specific antibody binding and background fluorescence. CCR10 antibodies were validated via the enrichment for CCR10 transcripts in magnetically sorted CCR10^+ cells versus non-sorted normal and IPF explant cells (FIG. 35). Flow cytometric data were acquired within one week of staining using a LSR Frotessa (BD Biosciences) or MACSQuant 10 (Miltenyi Biotech) flow cytometers and data were analyzed using Flowjo software V10.2 (Treestar Inc.). The resulting gates from non-humanized NSG-GFP mice were used to identify human CD45-, EPCAM-, CCR10-, and PDGFRα-stained cells (FIGS. 36C & 21F).
Lung tissue was fixed in 10% NBF solution for 24 h and subsequently transferred into tissue cassettes and kept in a 70% ethanol solution for approximately 24 h, Lungs were then processed using routine histology techniques and stained using Masson's trichrome. A Zeiss Axio Observer Z1 microscope and the Zeiss Zen 2012 v 1.1.2.0 software (Zeiss) were used to obtain representative images.
Total lung hydroxyproline was analyzed. […] On the day of the assay, tissues were thawed and […] of distilled water (dH2O) was added to the tissues. Tissues were homogenized using a micro-sample homogenizer (Pro Scientific) as follows: the homogenizing tip was washed in 70% ethanol, then dH2O and then utilized to homogenize the tissues. The homogenizer was washed in dH2O between samples and a new batch of dH2O was utilized after 5 samples. […]

[2] = test system: EphA3 expressing cells; experiment: IPF explant cell challenged NOD/SCID mice treated with anti-EphA3 antibody; assay type: in vivo; details: listed as afucosylated anti-EphA3 antibody
Source text: IHC analysis indicated the presence of these cells near honeycombing cysts, in the interstitium and their expansion in IPF lung biopsies and explants relative to normal lungs.

[3] = prophylactic, 5 mg/kg days 0 to 35, day 35, flow cytometry
[4] = treatment beginning at day 7, day 35

B1: KB004: afucosylated anti-EphA3 mAb supplied by Kalobios; targets EphA3+ cells via antibody-dependent cell-mediated cytotoxicity (ADCC) (antibody, chains of the INN, looked up, V domains shown)
VH: QVQLVQSGAEVKKPGASVKVSCKASGYTFTGYWMNWVRQAPGQGLEWMGDIYPGSGNTNYDEKFQGRVTMTRDTSISTAYMELSRLRSDDTAVYYCARGGYYEDFDSWGQGTTVTVSS
VL: DIQMTQSPSFLSASVGDRVTITCRASQGIISYLAWYQQKPEKAPKRLIYAASSLQSGVPSRFSGSGSGTEFTLTISSLQPEDFATYYCGQYANYPYTFGQGTKLEIK
Q: Which results are given for B1?
A: development of lung fibrosis ([1]; prophylactic treatment over 35 days): completely prevented; CCR10+ CD45+ cells in lungs, KB004 versus KB243 [1, 3]: significant reduction; CCR10+ Lin- cells in lungs, KB004 versus KB243 [1, 3]: significant reduction; hydroxyproline in the lungs ([1]; prophylactic, 5 mg/kg i.p. twice weekly days 0 to 35, day 35): significantly reduced; numbers of CD45+ and Lin- CCR10+ cells and pulmonary fibrosis ([1]; therapeutic treatment from days 35 to 63): failed to reduce; histological appearance, KB243 versus KB004 ([1]; therapeutic, days 35 to 63): no significant difference; lung hydroxyproline, KB243 versus KB004 ([1]; therapeutic, days 35 to 63): no significant difference; CCR10+ cell numbers, KB243 versus KB004 ([1]; therapeutic, days 35 to 63, flow cytometry): no significant difference; hydroxyproline in humanized NSG lungs relative to non-humanized mice ([1]; therapeutic, starting at day 35, day 63): elevated; histological interstitial consolidation, KB004 compared to KB243 [1, 4]: ameliorated; number of CD45+ CCR10+ cells, KB004 compared to KB243 [1, 4]: significant reduction; lung hydroxyproline, KB004 compared to KB243 ([1]; treatment beginning at day 7 after IPF cell injection, day 35): lower; fibrotic response / lung remodeling [2]: ameliorated the fibrotic response; also recorded: ameliorated lung remodeling
